In patent publication US20210388087A1 (Chugai, published 2021):

Target: T1, biotin-labeled human CD137 fused to human IgG1 Fc fragment (human, UniProt Q07011 24-186, biotin-labeled)
T1 construct: also called human CD137-Fc; biotin-human CD137-Fc; not shown: human IgG1 Fc fragment
Experiment: bead ELISA, 1250 ng IgG, S/N over biotin-human Fc

T1 sequence (Q07011 24-186 limits assumed): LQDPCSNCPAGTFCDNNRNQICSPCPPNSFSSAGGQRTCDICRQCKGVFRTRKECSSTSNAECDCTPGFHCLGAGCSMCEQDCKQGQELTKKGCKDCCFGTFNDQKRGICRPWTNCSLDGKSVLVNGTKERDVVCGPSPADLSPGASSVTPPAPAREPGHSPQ

Row | binding result | Binder
1 | binds | dBBDu202 (antibody, human IgG1, V domains shown, human IgG1; GLS3000 light chain) VH: QVQLVESGGGLVQPGRSLRLSCAASGFTFSNAWMHWVRQAPGKGLEWVAQIKDKGNAYAAYYAPSVKGRFTISRDDSKNSIYLQMNSLKTEDTAVYYCHYVHYSAASTVLPAFGVDAWGQGTTVTVSS VL: DIVMTQSPLSLPVTPGEPASISCRSSQSLVHSNRNTYLHWYQQKPGQAPRLLIYKVSNRFSGVPDRFSGSGSGTDFTLKISRVEAEDVGVYYCGQGTQVPYTFGQGTKLEIK
2 | binds | dBBDu174 (antibody, human IgG1, V domains shown, human IgG1; GLS3000 light chain) VH: QVQLVESGGGLVQPGRSLRLSCAASGFTFSSAWMHWVRQAPGKGLEWVAQIKDRASAYNAYYAESVKGRFTISRDDSKNSIYLQMNSLKTEDTAVYYCRYVHYPSYVSFLPYYGVDAWGQGTTVTVSS VL: DIVMTQSPLSLPVTPGEPASISCRSSQSLVHSNRNTYLHWYQQKPGQAPRLLIYKVSNRFSGVPDRFSGSGSGTDFTLKISRVEAEDVGVYYCGQGTQVPYTFGQGTKLEIK
3 | binds | dBBDu179 (antibody, human IgG1, V domains shown, human IgG1; GLS3000 light chain) VH: QVQLVESGGGLVQPGRSLRLSCAASGFTFSNAWMHWVRQAPGKGLEWVAQIKDRSNQYATYYAPSVKGRFTISRDDSKNSIYLQMNSLKTEDTAVYYCHYVHYASASTVLPAFGVDAWGQGTTVTVSS VL: DIVMTQSPLSLPVTPGEPASISCRSSQSLVHSNRNTYLHWYQQKPGQAPRLLIYKVSNRFSGVPDRFSGSGSGTDFTLKISRVEAEDVGVYYCGQGTQVPYTFGQGTKLEIK
4 | binds | dBBDu183 (antibody, human IgG1, V domains shown, human IgG1; GLS3000 light chain) VH: QVQLVESGGGLVQPGRSLRLSCAASGFTFSNAWMHWVRQAPGKGLEWVAQIKDKGNAYAAYYAPSVKGRFTISRDDSKNSIYLQMNSLKTEDTAVYYCHYVHYASASTVLPAFGVDAWGQGTTVTVSS VL: DIVMTQSPLSLPVTPGEPASISCRSSQSLVHSNRNTYLHWYQQKPGQAPRLLIYKVSNRFSGVPDRFSGSGSGTDFTLKISRVEAEDVGVYYCGQGTQVPYTFGQGTKLEIK
5 | binds | dBBDu204 (antibody, human IgG1, V domains shown, human IgG1; GLS3000 light chain) VH: QVQLVESGGGLVQPGRSLRLSCAASGFTFSNAWMHWVRQAPGKGLEWVAQIKDRSNNYATYYAESVKGRFTISRDDSKNSIYLQMNSLKTEDTAVYYCHYVHYASASTVLPAFGVDAWGQGTTVTVSS VL: DIVMTQSPLSLPVTPGEPASISCRSSQSLVHSNRNTYLHWYQQKPGQAPRLLIYKVSNRFSGVPDRFSGSGSGTDFTLKISRVEAEDVGVYYCGQGTQVPYTFGQGTKLEIK
6 | binds | dBBDu205 (antibody, human IgG1, V domains shown, human IgG1; GLS3000 light chain) VH: QVQLVESGGGLVQPGRSLRLSCAASGFTFSNAWMHWVRQAPGKGLEWVAQIKDRSQLYAAYYAPSVKGRFTISRDDSKNSIYLQMNSLKTEDTAVYYCHYVHYASASTVLPAFGVDAWGQGTTVTVSS VL: DIVMTQSPLSLPVTPGEPASISCRSSQSLVHSNRNTYLHWYQQKPGQAPRLLIYKVSNRFSGVPDRFSGSGSGTDFTLKISRVEAEDVGVYYCGQGTQVPYTFGQGTKLEIK
7 | binds | dBBDu125 (antibody, human IgG1, V domains shown, human IgG1; GLS3000 light chain; also called DXDU01_3 #019; DXDU01_3_#019) VH: QVQLVESGGGLVQPGRSLRLSCAASGFTFSIAWMHWVRQAPGKGLEWVAQIKDKVNGYTAYYAESVKGRFTISRDDSKNSIYLQMNSLKTEDTAVYYCRYVHYAAYYDVLGYGGVDAWGQGTTVTVSS VL: DIVMTQSPLSLPVTPGEPASISCRSSQSLVHSNRNTYLHWYQQKPGQAPRLLIYKVSNRFSGVPDRFSGSGSGTDFTLKISRVEAEDVGVYYCGQGTQVPYTFGQGTKLEIK
8 | binds | dBBDu222 (antibody, human IgG1, V domains shown, human IgG1; GLS3000 light chain) VH: QVQLVESGGGLVQPGRSLRLSCAASGFTISSAWMHWVRQAPGKGLEWVAQIKDRANGYAAYYAPSVKGRFTISRDDSKNSIYLQMNSLKTEDTAVYYCRYVHYATAYDGFYGFGVDAWGQGTTVTVSS VL: DIVMTQSPLSLPVTPGEPASISCRSSQSLVHSNRNTYLHWYQQKPGQAPRLLIYKVSNRFSGVPDRFSGSGSGTDFTLKISRVEAEDVGVYYCGQGTQVPYTFGQGTKLEIK

Target: T2, Human CD137 ECD (human)
T2 construct: also called human CD137 extracellular domain; hCD137
T2 sequence (chain, as listed by the source limits assumed): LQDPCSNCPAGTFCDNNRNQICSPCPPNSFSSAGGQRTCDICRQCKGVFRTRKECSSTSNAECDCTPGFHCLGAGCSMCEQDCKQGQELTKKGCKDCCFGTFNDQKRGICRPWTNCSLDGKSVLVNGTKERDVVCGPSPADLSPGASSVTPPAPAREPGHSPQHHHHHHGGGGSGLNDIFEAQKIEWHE
Experiment: SPR (Biacore), affinity of single-mutation variant against parental H183/L072

Row | fold change of affinity for CD137 | Binder
9 | 0 fold | Dual-Fab H183/L072 variant with single light chain mutation K50Y (Kabat) (antibody, name in Kabat numbering, V domains shown, expressed as an antibody in Expi293 and purified on Protein A; also called dBBDu183H / dBBDu072L K50Y) VH: QVQLVESGGGLVQPGRSLRLSCAASGFTFSNAWMHWVRQAPGKGLEWVAQIKDKGNAYAAYYAPSVKGRFTISRDDSKNSIYLQMNSLKTEDTAVYYCHYVHYASASTVLPAFGVDAWGQGTTVTVSS VL: DIVMTQSPLSLPVTPGEPASISCQASQELVHMNRNTYLHWYQQKPGQAPRLLIYYVSNRFPGVPDRFSGSGSGTDFTLKISRVEAEDVGVYYCAQGTSVPFTFGQGTKLEIK
10 | 0 fold | Dual-Fab H183/L072 variant with single light chain mutation P95Y (Kabat) (antibody, name in Kabat numbering, V domains shown, expressed as an antibody in Expi293 and purified on Protein A; also called dBBDu183H / dBBDu072L P95Y) VH: QVQLVESGGGLVQPGRSLRLSCAASGFTFSNAWMHWVRQAPGKGLEWVAQIKDKGNAYAAYYAPSVKGRFTISRDDSKNSIYLQMNSLKTEDTAVYYCHYVHYASASTVLPAFGVDAWGQGTTVTVSS VL: DIVMTQSPLSLPVTPGEPASISCQASQELVHMNRNTYLHWYQQKPGQAPRLLIYKVSNRFPGVPDRFSGSGSGTDFTLKISRVEAEDVGVYYCAQGTSVYFTFGQGTKLEIK
11 | 1.2 fold | Dual-Fab H183/L072 variant with single light chain mutation S52Y (Kabat) (antibody, name in Kabat numbering, V domains shown, expressed as an antibody in Expi293 and purified on Protein A; also called dBBDu183H / dBBDu072L S52Y) VH: QVQLVESGGGLVQPGRSLRLSCAASGFTFSNAWMHWVRQAPGKGLEWVAQIKDKGNAYAAYYAPSVKGRFTISRDDSKNSIYLQMNSLKTEDTAVYYCHYVHYASASTVLPAFGVDAWGQGTTVTVSS VL: DIVMTQSPLSLPVTPGEPASISCQASQELVHMNRNTYLHWYQQKPGQAPRLLIYKVYNRFPGVPDRFSGSGSGTDFTLKISRVEAEDVGVYYCAQGTSVPFTFGQGTKLEIK
12 | 0.3 fold | Dual-Fab H183/L072 variant with single light chain mutation N53Y (Kabat) (antibody, name in Kabat numbering, V domains shown, expressed as an antibody in Expi293 and purified on Protein A; also called dBBDu183H / dBBDu072L N53Y) VH: QVQLVESGGGLVQPGRSLRLSCAASGFTFSNAWMHWVRQAPGKGLEWVAQIKDKGNAYAAYYAPSVKGRFTISRDDSKNSIYLQMNSLKTEDTAVYYCHYVHYASASTVLPAFGVDAWGQGTTVTVSS VL: DIVMTQSPLSLPVTPGEPASISCQASQELVHMNRNTYLHWYQQKPGQAPRLLIYKVSYRFPGVPDRFSGSGSGTDFTLKISRVEAEDVGVYYCAQGTSVPFTFGQGTKLEIK
13 | 0.2 fold | Dual-Fab H183/L072 variant with single light chain mutation R54Y (Kabat) (antibody, name in Kabat numbering, V domains shown, expressed as an antibody in Expi293 and purified on Protein A; also called dBBDu183H / dBBDu072L R54Y) VH: QVQLVESGGGLVQPGRSLRLSCAASGFTFSNAWMHWVRQAPGKGLEWVAQIKDKGNAYAAYYAPSVKGRFTISRDDSKNSIYLQMNSLKTEDTAVYYCHYVHYASASTVLPAFGVDAWGQGTTVTVSS VL: DIVMTQSPLSLPVTPGEPASISCQASQELVHMNRNTYLHWYQQKPGQAPRLLIYKVSNYFPGVPDRFSGSGSGTDFTLKISRVEAEDVGVYYCAQGTSVPFTFGQGTKLEIK
14 | 0 fold | Dual-Fab H183/L072 variant with single light chain mutation Q90Y (Kabat) (antibody, name in Kabat numbering, V domains shown, expressed as an antibody in Expi293 and purified on Protein A; also called dBBDu183H / dBBDu072L Q90Y) VH: QVQLVESGGGLVQPGRSLRLSCAASGFTFSNAWMHWVRQAPGKGLEWVAQIKDKGNAYAAYYAPSVKGRFTISRDDSKNSIYLQMNSLKTEDTAVYYCHYVHYASASTVLPAFGVDAWGQGTTVTVSS VL: DIVMTQSPLSLPVTPGEPASISCQASQELVHMNRNTYLHWYQQKPGQAPRLLIYKVSNRFPGVPDRFSGSGSGTDFTLKISRVEAEDVGVYYCAYGTSVPFTFGQGTKLEIK
15 | 0 fold | Dual-Fab H183/L072 variant with single light chain mutation F55Y (Kabat) (antibody, name in Kabat numbering, V domains shown, expressed as an antibody in Expi293 and purified on Protein A; also called dBBDu183H / dBBDu072L F55Y) VH: QVQLVESGGGLVQPGRSLRLSCAASGFTFSNAWMHWVRQAPGKGLEWVAQIKDKGNAYAAYYAPSVKGRFTISRDDSKNSIYLQMNSLKTEDTAVYYCHYVHYASASTVLPAFGVDAWGQGTTVTVSS VL: DIVMTQSPLSLPVTPGEPASISCQASQELVHMNRNTYLHWYQQKPGQAPRLLIYKVSNRYPGVPDRFSGSGSGTDFTLKISRVEAEDVGVYYCAQGTSVPFTFGQGTKLEIK
16 | 0 fold | Dual-Fab H183/L072 variant with single light chain mutation A89Y (Kabat) (antibody, name in Kabat numbering, V domains shown, expressed as an antibody in Expi293 and purified on Protein A; also called dBBDu183H / dBBDu072L A89Y) VH: QVQLVESGGGLVQPGRSLRLSCAASGFTFSNAWMHWVRQAPGKGLEWVAQIKDKGNAYAAYYAPSVKGRFTISRDDSKNSIYLQMNSLKTEDTAVYYCHYVHYASASTVLPAFGVDAWGQGTTVTVSS VL: DIVMTQSPLSLPVTPGEPASISCQASQELVHMNRNTYLHWYQQKPGQAPRLLIYKVSNRFPGVPDRFSGSGSGTDFTLKISRVEAEDVGVYYCYQGTSVPFTFGQGTKLEIK
17 | 0 fold | Dual-Fab H183/L072 variant with single light chain mutation P56Y (Kabat) (antibody, name in Kabat numbering, V domains shown, expressed as an antibody in Expi293 and purified on Protein A; also called dBBDu183H / dBBDu072L P56Y) VH: QVQLVESGGGLVQPGRSLRLSCAASGFTFSNAWMHWVRQAPGKGLEWVAQIKDKGNAYAAYYAPSVKGRFTISRDDSKNSIYLQMNSLKTEDTAVYYCHYVHYASASTVLPAFGVDAWGQGTTVTVSS VL: DIVMTQSPLSLPVTPGEPASISCQASQELVHMNRNTYLHWYQQKPGQAPRLLIYKVSNRFYGVPDRFSGSGSGTDFTLKISRVEAEDVGVYYCAQGTSVPFTFGQGTKLEIK
18 | 0.8 fold | Dual-Fab H183/L072 variant with single light chain mutation S93Y (Kabat) (antibody, name in Kabat numbering, V domains shown, expressed as an antibody in Expi293 and purified on Protein A; also called dBBDu183H / dBBDu072L S93Y) VH: QVQLVESGGGLVQPGRSLRLSCAASGFTFSNAWMHWVRQAPGKGLEWVAQIKDKGNAYAAYYAPSVKGRFTISRDDSKNSIYLQMNSLKTEDTAVYYCHYVHYASASTVLPAFGVDAWGQGTTVTVSS VL: DIVMTQSPLSLPVTPGEPASISCQASQELVHMNRNTYLHWYQQKPGQAPRLLIYKVSNRFPGVPDRFSGSGSGTDFTLKISRVEAEDVGVYYCAQGTYVPFTFGQGTKLEIK
19 | 0.6 fold | Dual-Fab H183/L072 variant with single light chain mutation F96Y (Kabat) (antibody, name in Kabat numbering, V domains shown, expressed as an antibody in Expi293 and purified on Protein A; also called dBBDu183H / dBBDu072L F96Y) VH: QVQLVESGGGLVQPGRSLRLSCAASGFTFSNAWMHWVRQAPGKGLEWVAQIKDKGNAYAAYYAPSVKGRFTISRDDSKNSIYLQMNSLKTEDTAVYYCHYVHYASASTVLPAFGVDAWGQGTTVTVSS VL: DIVMTQSPLSLPVTPGEPASISCQASQELVHMNRNTYLHWYQQKPGQAPRLLIYKVSNRFPGVPDRFSGSGSGTDFTLKISRVEAEDVGVYYCAQGTSVPYTFGQGTKLEIK
20 | 0 fold | Dual-Fab H183/L072 variant with single light chain mutation G91Y (Kabat) (antibody, name in Kabat numbering, V domains shown, expressed as an antibody in Expi293 and purified on Protein A; also called dBBDu183H / dBBDu072L G91Y) VH: QVQLVESGGGLVQPGRSLRLSCAASGFTFSNAWMHWVRQAPGKGLEWVAQIKDKGNAYAAYYAPSVKGRFTISRDDSKNSIYLQMNSLKTEDTAVYYCHYVHYASASTVLPAFGVDAWGQGTTVTVSS VL: DIVMTQSPLSLPVTPGEPASISCQASQELVHMNRNTYLHWYQQKPGQAPRLLIYKVSNRFPGVPDRFSGSGSGTDFTLKISRVEAEDVGVYYCAQYTSVPFTFGQGTKLEIK
